Experimental data as given in article PMC10563079 (Molecules, 2023).
Like-named read-outs stand apart in the source and are kept apart here. Bridge positions count the residues as written; N and C are the ends. Ends that are not written are not given here. Peptide text beside a SMILES is read from it.

T1: sPHGDH (1-307) (Homo sapiens, UniProt O43175)
T1 construct: the truncated version of PHGDH (sPHGDH, 1-307); made in house
T1 sequence (O43175 1-307): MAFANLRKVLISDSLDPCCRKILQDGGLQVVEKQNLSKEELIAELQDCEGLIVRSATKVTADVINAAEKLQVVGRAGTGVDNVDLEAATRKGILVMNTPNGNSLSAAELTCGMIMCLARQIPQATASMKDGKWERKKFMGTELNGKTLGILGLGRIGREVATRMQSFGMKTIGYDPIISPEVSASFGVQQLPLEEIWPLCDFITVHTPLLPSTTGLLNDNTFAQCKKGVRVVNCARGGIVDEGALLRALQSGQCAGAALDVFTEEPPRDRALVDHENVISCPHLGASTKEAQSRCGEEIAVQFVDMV

T2: full-length PHGDH (1-533) (Homo sapiens, UniProt O43175)
T2 construct: the full-length PHGDH (1-533); made in house
T2 sequence (O43175 1-533): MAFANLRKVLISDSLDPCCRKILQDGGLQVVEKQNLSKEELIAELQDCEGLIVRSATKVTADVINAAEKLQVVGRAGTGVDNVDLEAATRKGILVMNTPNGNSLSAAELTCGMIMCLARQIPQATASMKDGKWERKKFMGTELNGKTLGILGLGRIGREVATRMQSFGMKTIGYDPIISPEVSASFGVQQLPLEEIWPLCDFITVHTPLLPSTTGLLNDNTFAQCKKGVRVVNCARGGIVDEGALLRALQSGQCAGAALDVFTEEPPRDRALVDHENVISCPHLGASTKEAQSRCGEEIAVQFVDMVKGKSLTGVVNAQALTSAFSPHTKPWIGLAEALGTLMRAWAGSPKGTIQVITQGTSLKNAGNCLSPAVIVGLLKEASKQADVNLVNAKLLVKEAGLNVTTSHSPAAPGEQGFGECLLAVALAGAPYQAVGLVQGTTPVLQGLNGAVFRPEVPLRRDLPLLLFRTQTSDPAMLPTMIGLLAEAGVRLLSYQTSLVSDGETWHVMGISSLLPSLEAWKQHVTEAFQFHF

T3: full-length PHGDH (1-533) (human, UniProt O43175 1-533)
T3 sequence (looked up): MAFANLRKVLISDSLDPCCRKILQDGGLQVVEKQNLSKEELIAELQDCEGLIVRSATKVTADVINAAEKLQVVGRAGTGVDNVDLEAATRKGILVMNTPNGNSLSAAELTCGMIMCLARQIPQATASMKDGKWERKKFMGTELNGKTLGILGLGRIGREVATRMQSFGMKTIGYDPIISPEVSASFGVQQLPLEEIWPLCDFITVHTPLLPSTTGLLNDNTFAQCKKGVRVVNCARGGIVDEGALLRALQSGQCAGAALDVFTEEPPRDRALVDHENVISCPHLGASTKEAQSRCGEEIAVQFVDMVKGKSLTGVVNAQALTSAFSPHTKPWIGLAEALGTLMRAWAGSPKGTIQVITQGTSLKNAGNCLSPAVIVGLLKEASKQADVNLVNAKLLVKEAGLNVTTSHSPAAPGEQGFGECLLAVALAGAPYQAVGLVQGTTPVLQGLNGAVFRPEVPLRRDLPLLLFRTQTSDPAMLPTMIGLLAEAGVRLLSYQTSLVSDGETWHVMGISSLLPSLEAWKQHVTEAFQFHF

T4: truncated version of PHGDH (sPHGDH, 1-307) (human, UniProt O43175 1-307, labelled with Monolith NT.115 Protein Labeling Kit RED-NHS (in the MST assay only))
T4 sequence (looked up): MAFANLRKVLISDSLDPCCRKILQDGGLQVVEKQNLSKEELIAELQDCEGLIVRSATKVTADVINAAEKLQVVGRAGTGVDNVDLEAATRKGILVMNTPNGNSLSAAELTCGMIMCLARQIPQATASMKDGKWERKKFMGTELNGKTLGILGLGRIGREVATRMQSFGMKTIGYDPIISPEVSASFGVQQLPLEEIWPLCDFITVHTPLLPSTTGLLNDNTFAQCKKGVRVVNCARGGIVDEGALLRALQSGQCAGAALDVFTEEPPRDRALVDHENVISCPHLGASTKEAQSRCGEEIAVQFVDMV


Columns and labels:
sPHGDH (1-307) = biological target: T1, sPHGDH (1-307); assay: sPHGDH enzyme activity assay (NADH fluorescence); format: biochemical
Procedure: (§1) PHGDH activity in the presence of peptides was measured in 96-well plates (100 μL per well) at 25 °C, through monitoring the NADH fluorescence (excitation at 360 nm and emission at 460 nm) over time. PAST1 and its substrate glutamate were also included in order to prevent product inhibition. In the enzyme assays, protein expression and purification, including the truncated version of PHGDH (sPHGDH, 1-307), the full-length PHGDH (1-533), and PAST1, were carried out as described in our previous papers. To evaluate the effects of peptides on enzyme activity, the peptides were pre-incubated with enzyme samples (sPHGDH 453.3 nM or PHGDH 30.9 nM) in the assay buffer (HEPES 50 mM, pH 7.5, 10 mM MgCl2, and 1 mM EDTA) for 12 h. Then, 1.98 μM PAST1, 1 mM NAD^+, and 30 mM glutamate were added and pre-incubated for 10 min before initiating the enzyme reaction via the addition of the substrate (1 mM 3-PG). Fluorescence signals were recorded for 3 min with the kinetics-reading mode of the Biotek plate reader (Synergy). IC50 values were obtained through fitting the data using a three-parameter Hill model of the graph of log dose against the percentage inhibition from three repeated experiments. For those peptides containing two disulfide bonds, a second step of oxidation reaction was carried out to generate the second disulfide pair. […] The purified Acm-protected peptide was then treated with iodine (I2, 1 wt% in MeOH), dropwise under acidic conditions until the solution became brown.

[1] = biological target: T2, full-length PHGDH (1-533); assay: full-length PHGDH enzyme activity assay (NADH fluorescence); format: biochemical
Procedure: as §1

[2] = biological target: T3, full-length PHGDH (1-533); assay: cell-based or functional assay
[3] = biological target: T4, truncated version of PHGDH (sPHGDH, …); assay: cell-based or functional assay
[4] = biological target: T4, truncated version of PHGDH (sPHGDH, …); assay: MST; sPHGDH labelled with RED-NHS, 20 nM final; peptides in 16 points, 1:2 dilutions from 0.5 mM; 50 mM HEPES pH 7.5, 1 mM EDTA, 10 mM MgCl2, 100 mM NaCl, 0.005% Tween 20; incubated 16 h at room temperature; 1:1 binding mode; apparent; conditions: both partners purified
[5] = sPHGDH, 12 h pre-incubation, read-out: IC50 Value
[6] = read-out: IC50 value (μM), full-length PHGDH activity
[7] = IC50 value (μM), full-length PHGDH activity

Row | Molecule | IC50 of inhibition of full-length PHGDH enzyme activity (NADH fluorescence); the pair blocked is the PHGDH homo-oligomer (m2+m2) [2] [µM] | IC50 of inhibition of sPHGDH enzyme activity (NADH fluorescence); the pair blocked is the sPHGDH homo-dimer (m1+m1) [3] [µM] | Kd [4] [µM] | also measured
1 | CSCC[C@@H]1NC(=O)[C@H](CO)NC(=O)[C@H](CC(C)C)NC(=O)[C@H]([C@@H](C)O)NC(=O)[C@H](C)NC(=O)[C@H](CC(=O)O)NC(=O)[C@@H]2CCCN2C(=O)[C@H]([C@@H](C)O)NC(=O)[C@@H](NC(C)=O)CSSC[C@@H](C(=O)O)NC(=O)[C@H](CCCCN)NC(=O)[C@H](CCCCN)NC(=O)[C@H](CCC(=O)O)NC(=O)[C@H](CCC(=O)O)NC(=O)[C@H](Cc2c[nH]c3ccccc23)NC(=O)[C@H](CCCCN)NC(=O)CNC(=O)[C@H](CC(=O)O)NC(=O)[C@H](CCCCN)NC1=O [Cyc1-6, C1TPDA TLSMK DGKWE EKKC19] (Ac-CTPDATLSMKDGKWEEKKC-OH; disulfide 1-19) |  |  |  | IC50 (sPHGDH (1-307); [5]): 5.1 ± 0.4 µM; IC50 [1, 6]: 24.6 ± 2.3 µM
2 | CSCC[C@@H]1NC(=O)[C@H]([C@@H](C)O)NC(=O)[C@H](CC(C)C)NC(=O)[C@H]([C@@H](C)O)NC(=O)[C@H](C)NC(=O)[C@H](CCC(N)=O)NC(=O)[C@@H]2CCCN2C(=O)[C@H]([C@@H](C)O)NC(=O)[C@@H](NC(C)=O)CSSC[C@@H](C(=O)O)NC(=O)[C@H](CCCCN)NC(=O)[C@H](CCCCN)NC(=O)[C@H](CCC(=O)O)NC(=O)[C@H](CCC(=O)O)NC(=O)[C@H](Cc2c[nH]c3ccccc23)NC(=O)[C@H](CCCCN)NC(=O)CNC(=O)[C@H](CC(=O)O)NC(=O)[C@H](CCCCN)NC1=O [Cyc1-7, C1TPQA TLTMK DGKWE EKKC19] (Ac-CTPQATLTMKDGKWEEKKC-OH; disulfide 1-19) |  |  |  | IC50 (sPHGDH (1-307); [5]): 5.6 ± 1.2 µM; IC50 [1, 6]: 23.5 ± 2 µM
3 | CSCC[C@@H]1NC(=O)[C@@H]2CSSC[C@H](NC(=O)[C@H](Cc3c[nH]c4ccccc34)NC(=O)[C@H](CCCCN)NC(=O)CNC(=O)[C@H](CC(=O)O)NC(=O)[C@H](CC(C)C)NC1=O)C(=O)N[C@@H](CCCNC(=N)N)C(=O)N[C@@H](CCCCN)C(=O)N[C@@H](CCCCN)C(=O)N[C@H](C(=O)O)CSSC[C@H](NC(C)=O)C(=O)N[C@@H]([C@@H](C)O)C(=O)N1CCC[C@H]1C(=O)N[C@@H](CCC(N)=O)C(=O)N[C@@H](C)C(=O)N[C@@H]([C@@H](C)O)C(=O)N[C@@H](C)C(=O)N2 [Cyc2-2, C1TPQA TAC8ML DGKWC15 RKKC19] (Ac-CTPQATACMLDGKWCRKKC-OH; disulfide 1-19, 8-15) |  |  |  | IC50 (sPHGDH (1-307)): 9.4 ± 1.5 µM; IC50 [1, 7]: 32.9 ± 4 µM
4 | CSCC[C@@H]1NC(=O)[C@@H]2CSSC[C@H](NC(=O)[C@H](Cc3c[nH]c4ccccc34)NC(=O)[C@H](CCCCN)NC(=O)CNC(=O)[C@H](CC(=O)O)NC(=O)[C@H](CC(C)C)NC1=O)C(=O)N[C@@H](CCC(=O)O)C(=O)N[C@@H](CCCCN)C(=O)N[C@@H](CCCCN)C(=O)N[C@H](C(=O)O)CSSC[C@H](NC(C)=O)C(=O)N[C@@H]([C@@H](C)O)C(=O)N1CCC[C@H]1C(=O)N[C@@H](CCC(N)=O)C(=O)N[C@@H](C)C(=O)N[C@@H]([C@@H](C)O)C(=O)N[C@@H](C)C(=O)N2 [Cyc2-6, C1TPQA TAC8ML DGKWC15 EKKC19] (Ac-CTPQATACMLDGKWCEKKC-OH; disulfide 1-19, 8-15) |  |  |  | IC50 (sPHGDH (1-307)): 15 ± 1 µM; IC50 [1, 7]: 47.1 ± 5.2 µM
5 | CTPQATLSMKNGSWEQKKC (disulfide 1-19; not fully specified (N-terminus); printed as C_1_TPQA TLSMK NGSWE QKKC_19_, contains R16Q, with A7L, D11N and K13S (peptide numbering); designed from the dimerization loop of human PHGDH; source: synthetic peptide (GL Biochem, Shanghai; Fmoc solid-phase synthesis, HPLC purified)) [cyclic peptide cyc1-12] | 20.3 | 5.6 |  | 
6 | Ac-CTPQATACMKDGKWCRKKC (disulfide 1-19, 8-15, cyc1-1 with an added intramolecular disulfide C8-C15 (S8C, E15C); designed from the dimerization loop of human PHGDH; source: synthetic peptide (GL Biochem, Shanghai; Fmoc solid-phase synthesis, stepwise disulfide formation, HPLC purified)) [double constrained cyclic peptide cyc2-1] | 37.3 | 12 | 3.3 ± 0.8 | 
7 | Ac-CTPQATACMRDGKWCRKKC (disulfide 1-19, 8-15, cyc2-1 with K10R (peptide numbering); source: synthetic peptide (GL Biochem, Shanghai; Fmoc solid-phase synthesis, stepwise disulfide formation, HPLC purified)) [double constrained cyclic peptide cyc2-3] | 32.9 | 5.2 |  | 
8 | CTPQATLTMKNGSWEEKKC (disulfide 1-19; not fully specified (N-terminus); printed as C_1_TPQA TLTMK NGSWE EKKC_19_, A7L and S8T combined with D11N, K13S, native E15 kept, E16 (peptide numbering); designed from the dimerization loop of human PHGDH; source: synthetic peptide (GL Biochem, Shanghai; Fmoc solid-phase synthesis, HPLC purified)) [cyclic peptide cyc1-11] | 16.2 | 5.4 | 23.1 ± 4.2 | 
9 | CTPQATLSMKDGKWEEKKC (disulfide 1-19; not fully specified (N-terminus); printed as C_1_TPQA TLSMK DGKWE EKKC_19_, cyc1-1 with A7L and R16E (peptide numbering); designed from the dimerization loop of human PHGDH; source: synthetic peptide (GL Biochem, Shanghai; Fmoc solid-phase synthesis, HPLC purified)) [cyclic peptide cyc1-2] |  | 6.4 | 11.4 ± 3 | 
10 | CTPDATLSMKDGKWEEKKC (disulfide 1-19; not fully specified (N-terminus); printed as C_1_TPDA TLSMK DGKWE EKKC_19_, cyc1-2 with Q4D (peptide numbering); designed from the dimerization loop of human PHGDH; source: synthetic peptide (GL Biochem, Shanghai; Fmoc solid-phase synthesis, HPLC purified)) [cyclic peptide cyc1-6] |  | 5.1 | 24.8 ± 7.1 | 
11 | CTPQATASMKNGSWQEKKC (disulfide 1-19; not fully specified (N-terminus); printed as C_1_TPQA TASMK NGSWQ EKKC_19_, the text names D11N, K13S and E15Q; designed from the dimerization loop of human PHGDH; source: synthetic peptide (GL Biochem, Shanghai; Fmoc solid-phase synthesis, HPLC purified)) [cyclic peptide cyc1-9] |  | 4.7 | 9.8 ± 2.2 | 
